Test results reported in the supplement of paper PMC7877785.
± gives the uncertainty stated by the source.

Test: self-splicing fitness, log relative to wild type (ln ratio); higher = more splicing; Tetrahymena group I intron in knt gene, E. coli kanamycin selection, DiMSum; sequences stand for … in CUCUCU…GGAGGGAAAAGUUAUCAGGCAUGCACCUGGUAGCUAGUCUUUAAACCAAUAGAUUGCAUCGGUUUAAAAGGCAAGACCGUCAAAUUGCGGGAAAGGGGUCAACAGCCGUUCAGUACCAAGUCUCAGGGGAAACUUUGAGAUGGCCUUGCAAAGGGUAUGGUAAUAAGCUGACGGACAUGGUCCUAACCACGCAGCCAAGUCCUAAGUCAACAGAUCUUCUGUUGAUAUGGAUGCAGUUCACAGACUAAAUGUCGGUCGGGGAAGAUGUAUUCUUCUCAUAAGAUAUAGUCGGACCUCUCCUUAAUGGGAGCUAGCGGAUGAAGUGAUGCAACACUGGAGCCGCUGGGAACUAAUUUGUAUGCGAAAGUAUAUUGAUUAGUUUUGGAGUACUCGUGGUCG
Outline: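 The eight P1ex-region nucleotides of an intron in the knt kanamycin-resistance gene on pET-22b(+) were all randomised and the library put into E. coli BL21(DE3). Six replicate transformations were grown overnight at 37°C or 30°C on LB agar with or without 25 μg/mL kanamycin, together with 100 μg/mL carbenicillin, 50 μM IPTG and 0.2% rhamnose. Colonies were pooled and amplicon-sequenced on an Illumina HiSeq 2500. Fitness from DiMSum is the error-weighted combination of wild-type-normalised replicate fold changes, kanamycin over none.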

Row | Sequence | self-splicing fitness (ln) (30 °C) | self-splicing fitness (ln) (37 °C)
1 | ACAAAGCAAUAUUACGGGCU | -1.07 ± 0.055 | -0.972 ± 0.088
2 | ACAAAGCAAUAUUACGUAAU | -2.62 ± 0.061 | -1.14 ± 0.074
3 | ACAAAGCAAUAUUACGUAGG | -2.88 ± 0.1 | -1.55 ± 0.12
4 | ACAAAGCAAUAUUACGUGGG | -3.35 ± 0.13 | -2.47 ± 0.14
5 | ACAAAGCAAUAUUACGUGUC | -3.69 ± 0.14 | -3 ± 0.16
6 | ACAAAGCAAUAUUACGUGUG | -1.91 ± 0.052 | -0.905 ± 0.057
7 | ACAAAGCAAUAUUACGUUCA | -1.2 ± 0.068 | -0.708 ± 0.076
8 | ACACAGCAAUAUUACGAACU | -0.798 ± 0.05 | -0.493 ± 0.068
9 | ACACAGCAAUAUUACGAAGC | -4.18 ± 0.22 | -2.8 ± 0.21
10 | ACACAGCAAUAUUACGAAUA | -2.21 ± 0.13 | -1.6 ± 0.11
11 | ACACAGCAAUAUUACGACUG | -0.972 ± 0.047 | -0.67 ± 0.06
12 | ACACAGCAAUAUUACGAGCA | -1.44 ± 0.12 | -1.45 ± 0.13
13 | ACACAGCAAUAUUACGAUAC | -2.58 ± 0.26 | -2.69 ± 0.25
14 | ACACAGCAAUAUUACGCAGU | -3.84 ± 0.14 | -2.73 ± 0.12
15 | ACACAGCAAUAUUACGCCUU | -1.62 ± 0.076 | -0.434 ± 0.091
16 | ACACAGCAAUAUUACGCGCG | -0.558 ± 0.082 | 0.0666 ± 0.091
17 | ACACAGCAAUAUUACGCGGG | -2.43 ± 0.075 | -1.69 ± 0.091
18 | ACACAGCAAUAUUACGCGUG | -2.25 ± 0.074 | -1.68 ± 0.081
19 | ACACAGCAAUAUUACGCUCA | -0.416 ± 0.087 | -0.203 ± 0.093
20 | ACACAGCAAUAUUACGGACC | -1.99 ± 0.093 | -0.524 ± 0.11
21 | ACACAGCAAUAUUACGGCCA | -1.18 ± 0.12 | -1.17 ± 0.11
22 | ACACAGCAAUAUUACGGGUG | -1.31 ± 0.053 | -0.999 ± 0.065
23 | ACACAGCAAUAUUACGGUGA | -1.31 ± 0.068 | 0.17 ± 0.077
24 | ACACAGCAAUAUUACGUCCC | -1.16 ± 0.098 | -0.00572 ± 0.12

Row | Sequence | self-splicing fitness (ln) (30 °C) | self-splicing fitness (ln) (37 °C)
25 | ACACAGCAAUAUUACGUCGG | -1.65 ± 0.052 | -1.16 ± 0.071
26 | ACACAGCAAUAUUACGUGAG | -1.02 ± 0.05 | 0.121 ± 0.074
27 | ACACAGCAAUAUUACGUUCU | -0.986 ± 0.06 | -0.532 ± 0.068
28 | ACAGAGCAAUAUUACGAGAG | – | -2.6 ± 0.28
29 | ACAGAGCAAUAUUACGCAUA | -3.96 ± 0.31 | -1.8 ± 0.2
30 | ACAGAGCAAUAUUACGCGAU | -3.54 ± 0.24 | -3.29 ± 0.3
31 | ACAGAGCAAUAUUACGGAAU | -4.08 ± 0.29 | -1.86 ± 0.31
32 | ACAGAGCAAUAUUACGGACU | -2.73 ± 0.18 | -1.07 ± 0.14
33 | ACAGAGCAAUAUUACGGCUC | -3.09 ± 0.16 | -2.37 ± 0.22
34 | ACAGAGCAAUAUUACGGGGA | -4.66 ± 0.34 | -3.55 ± 0.25
35 | ACAGAGCAAUAUUACGGGUG | -2.96 ± 0.15 | -1.43 ± 0.12
36 | ACAGAGCAAUAUUACGGUUU | -3.11 ± 0.2 | -1.81 ± 0.16
37 | ACAGAGCAAUAUUACGUACG | -3.9 ± 0.23 | -2.3 ± 0.2
38 | ACAGAGCAAUAUUACGUGAU | -2.97 ± 0.1 | -2.08 ± 0.15
39 | ACAGAGCAAUAUUACGUUAU | -3.59 ± 0.19 | -3 ± 0.25
40 | ACAUAGCAAUAUUACGACAA | -0.573 ± 0.12 | -0.73 ± 0.12
41 | ACAUAGCAAUAUUACGAGCU | -1.32 ± 0.12 | -0.388 ± 0.13
42 | ACAUAGCAAUAUUACGAUAC | -3.6 ± 0.23 | -2.2 ± 0.25
43 | ACAUAGCAAUAUUACGAUCG | 0.0966 ± 0.084 | -0.312 ± 0.13
44 | ACAUAGCAAUAUUACGAUUC | -2.52 ± 0.15 | -1.52 ± 0.12
45 | ACAUAGCAAUAUUACGGAAC | -3.66 ± 0.24 | -2 ± 0.27
46 | ACAUAGCAAUAUUACGGCCC | -1.29 ± 0.14 | -0.169 ± 0.23
47 | ACAUAGCAAUAUUACGGCUC | -0.967 ± 0.092 | -0.28 ± 0.12
48 | ACAUAGCAAUAUUACGGGCG | -1.28 ± 0.09 | -1 ± 0.096

Row | Sequence | self-splicing fitness (ln) (30 °C) | self-splicing fitness (ln) (37 °C)
49 | ACAUAGCAAUAUUACGUCCC | -1.71 ± 0.15 | -0.222 ± 0.23
50 | ACAUAGCAAUAUUACGUCGC | -4.47 ± 0.38 | -1.69 ± 0.24
51 | ACAUAGCAAUAUUACGUGCG | -1.05 ± 0.064 | -0.527 ± 0.081
52 | ACAUAGCAAUAUUACGUGUG | -2.41 ± 0.065 | -1.58 ± 0.069
53 | ACAUAGCAAUAUUACGUUAU | -4.28 ± 0.29 | -3.07 ± 0.2
54 | ACAUAGCAAUAUUACGUUGA | -2.56 ± 0.17 | -1.66 ± 0.14
55 | ACAUAGCAAUAUUACGUUUA | -2.82 ± 0.19 | -1.75 ± 0.14
56 | ACCAAGCAAUAUUACGAAAG | -3.27 ± 0.18 | -1.78 ± 0.14
57 | ACCAAGCAAUAUUACGAGAA | -2.87 ± 0.34 | -2.32 ± 0.3
58 | ACCAAGCAAUAUUACGAGCA | -2.53 ± 0.12 | -0.958 ± 0.099
59 | ACCAAGCAAUAUUACGAGUA | -2.81 ± 0.14 | -2.29 ± 0.13
60 | ACCAAGCAAUAUUACGAGUU | -4.23 ± 0.23 | -1.99 ± 0.17
61 | ACCAAGCAAUAUUACGAUAG | -4.36 ± 0.23 | -2.7 ± 0.21
62 | ACCAAGCAAUAUUACGAUCC | -1.83 ± 0.093 | -0.778 ± 0.14
63 | ACCAAGCAAUAUUACGCAGC | -1.83 ± 0.11 | -1.12 ± 0.13
64 | ACCAAGCAAUAUUACGCCGA | -2.23 ± 0.15 | -1.81 ± 0.16
65 | ACCAAGCAAUAUUACGCCGG | -2.33 ± 0.13 | -0.125 ± 0.13
66 | ACCAAGCAAUAUUACGCCGU | -3.18 ± 0.17 | -1.66 ± 0.15
67 | ACCAAGCAAUAUUACGCGAC | -3.19 ± 0.16 | -1.59 ± 0.16
68 | ACCAAGCAAUAUUACGCGCA | -0.525 ± 0.054 | -0.106 ± 0.07
69 | ACCAAGCAAUAUUACGCUGG | -2.75 ± 0.15 | -2.72 ± 0.21
70 | ACCAAGCAAUAUUACGCUUG | -2.72 ± 0.21 | -3.79 ± 0.36
71 | ACCAAGCAAUAUUACGGACA | -0.841 ± 0.068 | -0.38 ± 0.072
72 | ACCAAGCAAUAUUACGGCUU | -3.85 ± 0.2 | -1.85 ± 0.16

Row | Sequence | self-splicing fitness (ln) (30 °C) | self-splicing fitness (ln) (37 °C)
73 | ACCAAGCAAUAUUACGGUCA | -1.36 ± 0.082 | -0.9 ± 0.086
74 | ACCAAGCAAUAUUACGUAAC | -3.94 ± 0.17 | -2.19 ± 0.16
75 | ACCAAGCAAUAUUACGUAGG | -2.55 ± 0.068 | -2.03 ± 0.096
76 | ACCAAGCAAUAUUACGUCCA | -2.01 ± 0.096 | -1.3 ± 0.1
77 | ACCAAGCAAUAUUACGUGAU | -2.46 ± 0.072 | -0.924 ± 0.074
78 | ACCAAGCAAUAUUACGUGCC | -0.735 ± 0.082 | -0.801 ± 0.13
79 | ACCCAGCAAUAUUACGAACC | -2.19 ± 0.15 | -0.993 ± 0.15
80 | ACCCAGCAAUAUUACGACAG | -3.36 ± 0.12 | -1.67 ± 0.11
81 | ACCCAGCAAUAUUACGACGU | -0.291 ± 0.055 | 0.39 ± 0.071
82 | ACCCAGCAAUAUUACGAGAG | -2.16 ± 0.086 | -0.789 ± 0.09
83 | ACCCAGCAAUAUUACGAUAU | -1.72 ± 0.1 | -0.318 ± 0.11
84 | ACCCAGCAAUAUUACGAUCA | -0.557 ± 0.11 | -0.56 ± 0.13
85 | ACCCAGCAAUAUUACGAUCU | -1.34 ± 0.068 | -0.243 ± 0.084
86 | ACCCAGCAAUAUUACGCAAU | -0.941 ± 0.053 | 0.344 ± 0.064
87 | ACCCAGCAAUAUUACGCAGG | -3.07 ± 0.11 | -2.48 ± 0.16
88 | ACCCAGCAAUAUUACGCAUA | -1.19 ± 0.061 | -1.07 ± 0.066
89 | ACCCAGCAAUAUUACGCCCA | -0.605 ± 0.12 | -0.4 ± 0.13
90 | ACCCAGCAAUAUUACGCCCG | -2.3 ± 0.18 | -1.22 ± 0.19
91 | ACCCAGCAAUAUUACGCCCU | -0.0641 ± 0.052 | 0.262 ± 0.091
92 | ACCCAGCAAUAUUACGCCUG | -2.21 ± 0.12 | -3 ± 0.26
93 | ACCCAGCAAUAUUACGCGAA | -1.26 ± 0.068 | -0.703 ± 0.078
94 | ACCCAGCAAUAUUACGCUAG | -2.81 ± 0.1 | -1.77 ± 0.12
95 | ACCCAGCAAUAUUACGCUUG | -3.38 ± 0.11 | -2.43 ± 0.12
